Assay results as given in paper PMC6509359 (Molecular Cell, 2019).

B1: Human USP28 (149-703) L415E I419E (domain or fragment, UniProt Q96RU2 149-703, looked up)
chain: PNPNDWRRVDGWPVGLKNVGNTCWFSAVIQSLFQLPEFRRLVLSYSLPQNVLENCRSHTEKRNIMFMQELQYLFALMMGSNRKFVDPSAALDLLKGAFRSSEEQQQDVSEFTHKLLDWLEDAFQLAVNVNSPRNKSENPMVQLFYGTFLTEGVREGKPFCNNETFGQYPLQVNGYRNLDECLEGAMVEGDVELLPSDHSVKYGQERWFTKLPPVLTFELSRFEFNQSLGQPEKIHNKLEFPQIIYMDRYMYRSKELIRNKRECIRKEKEEEKILQQKLERYVKYGSGPARFPLPDMLKYVIEFASTKPASESCPPESDTHMTLPLSSVHCSVSDQTSKESTSTESSSQDVESTFSSPEDSLPKSKPLTSSRSSMEMPSQPAPRTVTDEEINFVKTCLQRWRSEIEQDIQDLKTCIASTTQTIEQMYCDPLLRQVPYRLHAVLVHEGQANAGHYWAYIYNQPRQSWLKYNDISVTESSWEEVERDSYGGLRNVSAYCLMYINDKLPYFNAEAAPTESDQMSEVEALSVELKHYIQEDNWRFEQEVEEWEEEQSCKI
notes: also called variant with the insertion-destabilizing mutation; source: E. coli Rosetta2(DE3)pLacI, purified (HisTrap, 3C protease, Resource Q, size exclusion)
B2: Human USP28 (1-703) (domain or fragment, UniProt Q96RU2 1-703, looked up)
chain: MTAELQQDDAAGAADGHGSSCQMLLNQLREITGIQDPSFLHEALKASNGDITQAVSLLTDERVKEPSQDTVATEPSEVEGSAANKEVLAKVIDLTHDNKDDLQAAIALSLLESPKIQADGRDLNRMHEATSAETKRSKRKRCEVWGENPNPNDWRRVDGWPVGLKNVGNTCWFSAVIQSLFQLPEFRRLVLSYSLPQNVLENCRSHTEKRNIMFMQELQYLFALMMGSNRKFVDPSAALDLLKGAFRSSEEQQQDVSEFTHKLLDWLEDAFQLAVNVNSPRNKSENPMVQLFYGTFLTEGVREGKPFCNNETFGQYPLQVNGYRNLDECLEGAMVEGDVELLPSDHSVKYGQERWFTKLPPVLTFELSRFEFNQSLGQPEKIHNKLEFPQIIYMDRYMYRSKELIRNKRECIRKLKEEIKILQQKLERYVKYGSGPARFPLPDMLKYVIEFASTKPASESCPPESDTHMTLPLSSVHCSVSDQTSKESTSTESSSQDVESTFSSPEDSLPKSKPLTSSRSSMEMPSQPAPRTVTDEEINFVKTCLQRWRSEIEQDIQDLKTCIASTTQTIEQMYCDPLLRQVPYRLHAVLVHEGQANAGHYWAYIYNQPRQSWLKYNDISVTESSWEEVERDSYGGLRNVSAYCLMYINDKLPYFNAEAAPTESDQMSEVEALSVELKHYIQEDNWRFEQEVEEWEEEQSCKI
notes: USP28, human, residues 1-703; source: E. coli Rosetta2(DE3)pLacI, purified (HisTrap, 3C protease, Resource Q, size exclusion)
B3: Human USP28 (1-1077) (enzyme, UniProt Q96RU2 1-1077, looked up)
chain: MTAELQQDDAAGAADGHGSSCQMLLNQLREITGIQDPSFLHEALKASNGDITQAVSLLTDERVKEPSQDTVATEPSEVEGSAANKEVLAKVIDLTHDNKDDLQAAIALSLLESPKIQADGRDLNRMHEATSAETKRSKRKRCEVWGENPNPNDWRRVDGWPVGLKNVGNTCWFSAVIQSLFQLPEFRRLVLSYSLPQNVLENCRSHTEKRNIMFMQELQYLFALMMGSNRKFVDPSAALDLLKGAFRSSEEQQQDVSEFTHKLLDWLEDAFQLAVNVNSPRNKSENPMVQLFYGTFLTEGVREGKPFCNNETFGQYPLQVNGYRNLDECLEGAMVEGDVELLPSDHSVKYGQERWFTKLPPVLTFELSRFEFNQSLGQPEKIHNKLEFPQIIYMDRYMYRSKELIRNKRECIRKLKEEIKILQQKLERYVKYGSGPARFPLPDMLKYVIEFASTKPASESCPPESDTHMTLPLSSVHCSVSDQTSKESTSTESSSQDVESTFSSPEDSLPKSKPLTSSRSSMEMPSQPAPRTVTDEEINFVKTCLQRWRSEIEQDIQDLKTCIASTTQTIEQMYCDPLLRQVPYRLHAVLVHEGQANAGHYWAYIYNQPRQSWLKYNDISVTESSWEEVERDSYGGLRNVSAYCLMYINDKLPYFNAEAAPTESDQMSEVEALSVELKHYIQEDNWRFEQEVEEWEEEQSCKIPQMESSTNSSSQDYSTSQEPSVASSHGVRCLSSEHAVIVKEQTAQAIANTARAYEKSGVEAALSEVMLSPAMQGVILAIAKARQTFDRDGSEAGLIKAFHEEYSRLYQLAKETPTSHSDPRLQHVLVYFFQNEAPKRVVERTLLEQFADKNLSYDERSISIMKVAQAKLKEIGPDDMNMEEYKKWHEDYSLFRKVSVYLLTGLELYQKGKYQEALSYLVYAYQSNAALLMKGPRRGVKESVIALYRRKCLLELNAKAASLFETNDDHSVTEGINVMNELIIPCIHLIINNDISKDDLDAIEVMRNHWCSYLGQDIAENLQLCLGEFLPRLLDPSAEIIVLKEPPTIRPNSPYDLCSRFAAVMESIQGVSTVTVK
notes: USP28, human, residues 1-1077 (1,077 aa); also called full-length USP28; source: E. coli Rosetta2(DE3)pLacI, purified (HisTrap, 3C protease, Resource Q, size exclusion)

Biological target: the molecule itself
Assay: SEC-MALS; 100 μL of 1-2 mg/mL protein on Superdex 200 10/300, 0.5 mL/min, PBS + 2 mM DTT

Stoichiometry N, 2:
B1
B2
B3
